From patent US20230046744A1 (APO T B V, published 2023)
Values belong to the binder of their own block, whether it stands above or below them.

How the values were obtained:
[1] = molecular target: T1, HLA-A*0201/… with alanine at peptide position 6, on peptide-pulsed JY cells (human); assay: flow cytometry, peptide-pulsed JY cells
T1 construct: built from the parent peptide and the stated change
Protocol: (§1) Briefly, 200′000 JY cells were incubated (pulsed) overnight under serum free conditions with 100 μg/ml peptide variants. The amino acids of the used peptides were sequentially substituted for an alanine (information regarding sequences of peptides is summarized FIG. 3B).

[2] = molecular target: T2, HLA-A*0201/… with alanine at peptide position 5, on peptide-pulsed JY cells (human); assay: flow cytometry, peptide-pulsed JY cells
T2 construct: built from the parent peptide and the stated change
Protocol: as §1

[3] = molecular target: T3, HLA-A*0201/… with alanine at peptide position 3, on peptide-pulsed JY cells (human); assay: flow cytometry, peptide-pulsed JY cells
T3 construct: built from the parent peptide and the stated change
Protocol: as §1

[4] = molecular target: T4, HLA-A*0201/… with alanine at peptide position 4, on peptide-pulsed JY cells (human); assay: flow cytometry, peptide-pulsed JY cells
T4 construct: built from the parent peptide and the stated change
Protocol: as §1

[5] = molecular target: T5, CD3 molecule expressed on the surface of T cells (human, UniProt P07766 23-207); assay: flow cytometry on PBMCs
T5 construct: whole, on cells; CD3 complex on cells; also called CD3 on PBMCs; CD3 on surface of immune effector cells
T5 sequence (P07766 23-207): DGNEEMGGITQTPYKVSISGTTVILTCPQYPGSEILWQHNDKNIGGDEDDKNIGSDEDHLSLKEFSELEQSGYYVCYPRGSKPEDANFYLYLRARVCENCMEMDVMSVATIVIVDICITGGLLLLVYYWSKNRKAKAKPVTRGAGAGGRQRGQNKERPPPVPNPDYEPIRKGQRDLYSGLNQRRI

[6] = molecular target: T6, biotinylated HLA-A*2402/… complex (human, biotinylated complex, site not stated); assay: ELISA, biotinylated complexes on streptavidin plates
T6 construct: control complex on streptavidin plates

[7] = molecular target: HLA-A*2402/… complex on CHO-S cells (human); assay: flow cytometry on CHO-S transfectants
Protocol: Non transfected CHO-S cells were used as a control. For the staining 200′000 cells were suspended in 100 μl PBS containing 0.1% BSA. […] After 30 minutes incubation at 40° C. the cells were washed two times with 200 μl PBS containing 0.1% BSA. […] After the incubation, cells were washed again two times with 200 μl PBS containing 0.1% BSA.

[8] = molecular target: T7, biotinylated HLA-A*2402/… complex (human, biotinylated complex, site not stated); assay: ELISA, biotinylated complexes on streptavidin plates, dilution series of the antibody
T7 construct: recombinant complex on streptavidin plates

- binding result [1]: no binding
- binding result [2]: no binding
- binding result [3]: no binding
- binding result [4]: no binding
B1: 4A6 IgG (antibody, V domains shown)
VH: EVQLVQSGAEVKKPGSSVKVSCKASGGTFSSYAISWVRQAPGQGLEWMGGIIPIFGTADYAQKFQGRATITADESTSTAYMELSSLRSEDTAVYYCARDYDFWSGYYAGDVWGQGTTVTVSS
VL: QSALTQPASVSGSPGQSITISCTGTSSDVGGYNYVSWYQQHPGKAPKLMIYDVSNRPSGVSNRFSGSKSGNTASLTISGLQAEDEADYYCSSYTSSSTRVFGGGTKLTVL
notes: IgG detected with anti-human IgG; also called 4A6 antibody

- binding result [5]: no binding (tested: 50 ng/ml)
B2: 4A6_SC_FV (scFv, V domains shown)
VH: EVQLVQSGAEVKKPGSSVKVSCKASGGTFSSYAISWVRQAPGQGLEWMGGIIPIFGTADYAQKFQGRATITADESTSTAYMELSSLRSEDTAVYYCARDYDFWSGYYAGDVWGQGTTVTVSS
VL: QSALTQPASVSGSPGQSITISCTGTSSDVGGYNYVSWYQQHPGKAPKLMIYDVSNRPSGVSNRFSGSKSGNTASLTISGLQAEDEADYYCSSYTSSSTRVFGGGTKLTVL
notes: scFv of 4A6; VH and VL are those named for 4A6; also called monospecific antibody fragment

- IC50 [8]: 0.037 nM
B3: murine 9A7 IgG (antibody, V domains shown)
VH: QVQLQQPGAELVKPGASVKLSCKASGYTFTSFWMHWVKQRPGQGLEWIGEIDSSDSYTNYNQKFKGKATLTVDKSSSTAYMQLSSLTSDDSAVYYCARRVGRGYFDYWGQGTTLTVSS
VL: DIVMTQSHKFMSTSVGDRVSITCKASQDVRTAVVWYQQKPGQSPKLLIYWASTRHTGVPDRFTGSGSGTDYILTISSVQAEDLALYYCQQYDTTPWTFGGGTKVEIK
notes: mouse IgG from hybridoma; also called mouse 9A7 IgG; 9A7 murine antibody
- binding result [6]: no binding (tested: dilution series starting at 100 nM)
- binding result [7]: no binding (tested: dilution series starting at 222 nM)
